Tests used:
[1] = target: T1, human IL-2Rα protein (10165-H08H, Sino Biological) (human, UniProt P01589 22-213); test: ELISA, IL-2Rα coated at 2 µg/ml
T1 construct: Both are treated as the same protein; also called receptor IL-2Rα protein; CD25
T1 sequence (looked up): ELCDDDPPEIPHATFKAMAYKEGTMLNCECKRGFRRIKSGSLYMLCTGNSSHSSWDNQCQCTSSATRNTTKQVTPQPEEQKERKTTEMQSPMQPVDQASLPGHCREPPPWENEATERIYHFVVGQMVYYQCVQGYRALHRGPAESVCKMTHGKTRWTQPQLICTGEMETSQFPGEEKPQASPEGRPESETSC

[2] = target: T2, human IL-2Rβ protein (10696-H05H, Sino Biological) (human, UniProt P14784 27-239); test: ELISA, IL-2Rβ coated at 2 µg/ml; reference wild-type IL-2
T2 construct: Both are treated as the same protein; also called receptor IL-2Rβ protein; CD122
T2 sequence (looked up): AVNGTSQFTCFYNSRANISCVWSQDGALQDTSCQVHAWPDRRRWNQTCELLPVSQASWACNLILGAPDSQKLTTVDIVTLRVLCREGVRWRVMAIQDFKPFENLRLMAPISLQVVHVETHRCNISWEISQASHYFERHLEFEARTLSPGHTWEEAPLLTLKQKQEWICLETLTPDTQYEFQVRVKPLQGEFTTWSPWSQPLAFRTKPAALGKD

binding result [1]: binds
fold improvement of binding capacity compared with wild-type IL-2 [2]: 24 times
B1: IL-2-Fc fusion protein (Fc fusion)
chain: APTSSSTKKTQLQLEHLLLDLQMILNGINNYKNPKLTAMLTFKFYMPKKATELKHLQCLEEELKPLEEVLNLAQSKNFHFDPRDVVSNINVFVLELKGSETTFMCEYADETATIVEFLNRWITFCQSIISTLTGGGGSGGGGSGGGGSEPKSCDKTHTCPPCPAPEAAGGPSVFLFPPKPKDTLYITREPEVTCVVVDVSHEDPEVKFNWYVDGVEVHNAKTKPREEQYNSTYRVVSVLTVLHQDWLNGKEYKCKVSNKALPAPIEKTISKAKGQPREPQVYTLPPSREEMTKNQVSLTCLVKGFYPSDIAVEWESNGQPENNYKTTPPVLDSDGSFFLYSKLTVDKSRWQQGNVFSCSVMHEALHNHYTQKSLSLSPK
